Source: US20240392020A1 (JIANGSU HENGRUI PHARMACEUTICALS, published 2024)
Where two headings read alike, the source gives them in different places. Each block holds one binder with its values, some of them ahead of it.

Key:
[1] = target: T1, hCD3 antigen protein (heterodimer of delta and epsilon subunits) (human); experiment: SPR Biacore T200, antibody captured on Protein A chip
T1 construct: prepared in the laboratory
T1 chain 1: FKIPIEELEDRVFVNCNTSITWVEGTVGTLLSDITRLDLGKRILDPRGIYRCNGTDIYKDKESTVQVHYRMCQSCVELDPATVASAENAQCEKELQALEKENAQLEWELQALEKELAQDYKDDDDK
T1 chain 2: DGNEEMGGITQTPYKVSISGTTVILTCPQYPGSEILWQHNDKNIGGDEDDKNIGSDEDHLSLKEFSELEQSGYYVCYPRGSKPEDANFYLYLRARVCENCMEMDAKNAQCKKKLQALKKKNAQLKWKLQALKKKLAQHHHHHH

[2] = target: T2, hB7H3 antigen protein (human, UniProt Q5ZPR3 29-461); experiment: as above
T2 construct: prepared in the laboratory
T2 sequence: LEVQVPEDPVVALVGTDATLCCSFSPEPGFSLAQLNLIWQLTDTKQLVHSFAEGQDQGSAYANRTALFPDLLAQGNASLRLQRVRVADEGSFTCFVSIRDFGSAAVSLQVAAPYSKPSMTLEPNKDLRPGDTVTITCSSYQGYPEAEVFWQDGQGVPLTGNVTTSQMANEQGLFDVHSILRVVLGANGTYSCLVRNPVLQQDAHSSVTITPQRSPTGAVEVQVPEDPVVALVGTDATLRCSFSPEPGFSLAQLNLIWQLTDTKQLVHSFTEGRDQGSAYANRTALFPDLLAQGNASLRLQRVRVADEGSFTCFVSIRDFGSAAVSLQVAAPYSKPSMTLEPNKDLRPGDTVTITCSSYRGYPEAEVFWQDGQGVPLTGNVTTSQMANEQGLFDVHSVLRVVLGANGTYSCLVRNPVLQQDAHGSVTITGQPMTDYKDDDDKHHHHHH

[3] = target: T3, Heavy chain of D0 (Homo sapiens (Human), UniProt P0DOX5 1-449 = IgG part); experiment: co-expression in HEK293E cells, LC-MS for the mispaired molecule
T3 construct: single antibody chain, co-expressed

[4] = target: T4, hBAFF (human, UniProt Q9Y275 134-285); experiment: SPR Biacore T200, antibody captured on Protein A chip
T4 construct: bought

[5] = target: T4, hBAFF; experiment: ELISA
[6] = target: T4, hBAFF; experiment: ELISA; remark: listed apart in the source
[7] = target: T4, hBAFF; experiment: SPR Biacore T200, antibody captured on Protein A chip; remark: listed apart in the source
[8] = target: T5, HJ-2-L2; experiment: mass spectrometry of the product of four co-transfected chains of HJ-2; mispairing of heavy chain 2 with light chain 3
T5 construct: also called chain 3 of HJ-2
T5 sequence (light, as listed by the source limits assumed): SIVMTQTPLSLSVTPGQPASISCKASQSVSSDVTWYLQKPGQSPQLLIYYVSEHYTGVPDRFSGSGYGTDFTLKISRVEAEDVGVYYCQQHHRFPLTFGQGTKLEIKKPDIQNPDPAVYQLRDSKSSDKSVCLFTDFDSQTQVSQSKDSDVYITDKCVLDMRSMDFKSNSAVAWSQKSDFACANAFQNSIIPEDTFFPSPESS

[9] = target: T6, hP40 (human, UniProt P29460 23-328); experiment: SPR Biacore T200, antibody captured on Protein A chip
T6 construct: bought
T6 sequence (looked up): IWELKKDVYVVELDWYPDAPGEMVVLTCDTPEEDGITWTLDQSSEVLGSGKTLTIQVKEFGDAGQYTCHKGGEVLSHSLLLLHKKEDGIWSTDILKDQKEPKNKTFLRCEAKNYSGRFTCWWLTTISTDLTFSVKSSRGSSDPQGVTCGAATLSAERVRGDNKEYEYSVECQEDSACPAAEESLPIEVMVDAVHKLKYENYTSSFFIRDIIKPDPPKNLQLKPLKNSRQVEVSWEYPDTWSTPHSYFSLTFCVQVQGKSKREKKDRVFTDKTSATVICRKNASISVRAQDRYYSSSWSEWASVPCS

[10] = target: T4, hBAFF; experiment: SPR Biacore T200, BU5 captured, hBAFF injected after saturation with hP40
[11] = target: T6, hP40; experiment: SPR Biacore T200, BU5 captured, hP40 injected after saturation with hBAFF
[12] = target: T7, hTSLP (human, UniProt Q969D9 29-159); experiment: ELISA
T7 construct: bought

[13] = target: T8, human TIGIT-his (human, UniProt Q495A1 22-141, limits assumed); experiment: SPR Biacore T200, antibody captured on Protein A chip
T8 construct: bought; also called hTIGIT
T8 sequence (looked up): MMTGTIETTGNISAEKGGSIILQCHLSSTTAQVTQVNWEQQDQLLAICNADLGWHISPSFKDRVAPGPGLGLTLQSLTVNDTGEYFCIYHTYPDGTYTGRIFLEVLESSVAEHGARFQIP

[14] = target: T9, human PDL1-his (human, UniProt Q9NZQ7 19-239); experiment: as above
T9 construct: bought; also called hPDL1
T9 sequence (Q9NZQ7 19-239 limits assumed): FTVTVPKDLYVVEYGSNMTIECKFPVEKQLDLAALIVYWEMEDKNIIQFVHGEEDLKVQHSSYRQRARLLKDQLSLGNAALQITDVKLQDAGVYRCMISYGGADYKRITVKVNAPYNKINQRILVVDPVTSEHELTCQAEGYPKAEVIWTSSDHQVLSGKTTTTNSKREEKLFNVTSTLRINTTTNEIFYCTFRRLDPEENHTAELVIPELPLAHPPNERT

[15] = target: T9, human PDL1-his; experiment: SPR Biacore T200, antibody captured, hPDL1 injected after saturation with TIGIT
[16] = target: T8, human TIGIT-his; experiment: SPR Biacore T200, antibody captured, TIGIT injected after saturation with hPDL1

- binding result [3]: no binding
B2: Light chain of I3 (other)
light: DIQMTQSPSSLSASVGDRVTITCRASQSISNNLNWYQQKPGKAPKLLIYYTSRFHSGVPSRFSGSGSGTDFTFTISSLQPEDIATYYCQQEHTLPYTFGQGTKLEIKSGAPRFLTRPLAFVVSVGKDATLSSQIVGNPTPQVSWEKDKQPVTAGARFRLAQDGDLYRLKILDLQLSDSGQYVSRARNAIGEAFACLGLQVDAEA
notes: single antibody chain, co-expressed

- binding result [8]: no binding
B4: HJ-2-H1 (other)
heavy: EVQLVESGGGLVQPGGSLRLSCAASGFTFSHYYMAWVRQAPGKGLEWVTSISYEGDITYYGDSVKGRFTISRDNSKNTLYLQMNSLRAEDTATYYCASQTLRESFDYWGQGTLVTVSSASTKGPSVFPLAPSSKSTSGGTAALGCLVKDYFPEPVTVSWNSGALTSGVHTFPAVLQSSGLYSLSSVVTVPSSSLGTQTYICNVNHKPSNTKVDKKVEPKSCDKTHTCPPCPAPEAAGGPSVFLFPPKPKDTLMISRTPEVTCVVVDVSHEDPEVKFNWYVDGVEVHNAKTKPREEQYNSTYRVVSVLTVLHQDWLNGKEYKCKVSNKALPAPIEKTISKAKGQPREPQVCTLPPSREEMTKNQVSLSCAVKGFYPSDIAVEWESNGQPENNYKTTPPVLDSDGSFFLVSKLTVDKSRWQQGNVFSCSVMHEALHNHYTQKSLSLSPGKDYKDDDDK
notes: also called chain 2 of HJ-2

The remaining lines, values behind:

B1: FA-1 (bispecific antibody)
heavy 1: QVQLVQSGGGVVQPGTSLRLSCAASGFIFSSSAMHWVRQAPGKGLEWVAVISYDGSNKYYVDSVKGRFTISRDNSKNTLYLQMNSLRAEDTAVYYCARSARLYASFDYWGQGALVTVSSGGGGSGIPPKIECLPIDISIDEGKVLTVASAFTGEPTPEVTWSTGGRKIHSQEQGRFHIENTDDLTTLIIKDVQKQDGGLYTLTLRNEFGSDSATVNIHIRSIDKTHTCPPCPAPEAAGGPSVFLFPPKPKDTLMISRTPEVTCVVVDVSHEDPEVKFNWYVDGVEVHNAKTKPREEQYNSTYRVVSVLTVLHQDWLNGKEYKCKVSNKALPAPIEKTISKAKGQPREPQVCTLPPSREEMTKNQVSLSCAVKGFYPSDIAVEWESNGQPENNYKTTPPVLDSDGSFFLVSKLTVDKSRWQQGNVFSCSVMHEALHNHYTQKSLSLSPGK
light 1: DTVVTQEPSFSVSPGGTVTLTCGLSSGSVSTSHYPSWYQQTPGQAPRMLIYNTNTRSSGVPDRFSGSILGNKAALTITGAQADDESDYYCAIHVDRDIWVFGGGTKLTVLGGGGSSGAPRFLTRPLAFVVSVGKDATLSSQIVGNPTPQVSWEKDKQPVTAGARFRLAQDGDLYRLKILDLQLSDSGQYVSRARNAIGEAFACLGLQVDAEA
heavy 2: not shown
light 2: not shown
notes: also called FA-1 bispecific antibody
- Kd [1]: 60.2 nM
- koff [1]: 0.00425 s⁻¹
- kon [1]: 70600 M⁻¹ s⁻¹
- Kd [2]: 45 nM
- koff [2]: 0.00712 s⁻¹
- kon [2]: 158000 M⁻¹ s⁻¹

B3: Bmab (antibody, human IgG1, lambda)
heavy: not shown
light: SSELTQDPAVSVALGQTVRVTCQGDSLRSYYASWYQQKPGQAPVLVIYGKNNRPSGIPDRFSGSSSGNTASLTITGAQAEDEADYYCSSRDSSGNHWVFGGGTELTVLGQPKAAPSVTLFPPSSEELQANKATLVCLISDFYPGAVTVAWKADSSPVKAGVETTTPSKQSNNKYAASSYLSLTPEQWKSHRSYSCQVTHEGSTVEKTVAPTECS
notes: also called B0
- Kd [4]: 0.855 nM
- koff [4]: 0.000152 s⁻¹
- kon [4]: 177000 M⁻¹ s⁻¹
- EC50 [5]: 0.219 nM
- EC50 [6]: 0.2 nM
- Kd [7]: 0.864 nM
- koff [7]: 0.000153 s⁻¹
- kon [7]: 177000 M⁻¹ s⁻¹

B5: BU5 (bispecific antibody, human IgG1, kappa, L234A L235A)
heavy 1: QVQLQQSGAEVKKPGSSVRVSCKASGGTFNNNAINWVRQAPGQGLEWMGGIIPMFGTAKYSQNFQGRVAITADESTGTASMELSSLRSEDTAVYYCARSRDLLLFPHHALSPWGRGTMVTVSSGGGGSGIPPKIECLPIDISIDEGKVLTVASAFTGEPTPEVTWSTGGRKIHSQEQGRFHIENTDDLTTLIIKDVQKQDGGLYTLTLRNEFGSDSATVNIHIRSIDKTHTCPPCPAPEAAGGPSVFLFPPKPKDTLMISRTPEVTCVVVDVSHEDPEVKFNWYVDGVEVHNAKTKPREEQYNSTYRVVSVLTVLHQDWLNGKEYKCKVSNKALPAPIEKTISKAKGQPREPQVCTLPPSREEMTKNQVSLSCAVKGFYPSDIAVEWESNGQPENNYKTTPPVLDSDGSFFLVSKLTVDKSRWQQGNVFSCSVMHEALHNHYTQKSLSLSPGK
light 1: SSELTQDPAVSVALGQTVRVTCQGDSLRSYYASWYQQKPGQAPVLVIYGKNNRPSGIPDRFSGSSSGNTASLTITGAQAEDEADYYCSSRDSSGNHWVFGGGTELTVLGGGGSSGAPRFLTRPLAFVVSVGKDATLSSQIVGNPTPQVSWEKDKQPVTAGARFRLAQDGDLYRLKILDLQLSDSGQYVSRARNAIGEAFACLGLQVDAEA
heavy 2: not shown
light 2: not shown
- Kd [4]: 0.393 nM
- koff [4]: 7.62e-05 s⁻¹
- kon [4]: 194000 M⁻¹ s⁻¹
- Kd [9]: 0.0664 nM
- koff [9]: 0.000102 s⁻¹
- kon [9]: 1.54e+06 M⁻¹ s⁻¹
- Kd [10]: 0.537 nM
- koff [10]: 8.44e-05 s⁻¹
- kon [10]: 157000 M⁻¹ s⁻¹
- Kd [11]: 0.0661 nM
- koff [11]: 0.000104 s⁻¹
- kon [11]: 1.57e+06 M⁻¹ s⁻¹

B6: J3 (antibody)
heavy: not shown
light: SYELTQPLSVSVALGQTARITCSGDNIGSKYVHWYQQKPGQAPVLVIYGDNERPSGIPERFSGSNSGNTATLTISRAQAGDEADYYCQAADWVDFYVFGGGTKLTVLGIPPKIEALPSDISIDEGKVLTVACAFTGEPTPEVTWSCGGRKIHSQEQGRFHIENTDDLTTLIIMDVQKQDGGLYTLSLGNEFGSDSATVNIHIRSI
- EC50 [12]: 0.25 nM

B7: P-O-T (bispecific antibody, human IgG1, kappa)
heavy: not shown
light 1: DIVLTQSPASLAVSPGQRATITCRASESVSIHGTHLMHWYQQKPGQPPKLLIYAASKLESGVPARFSGSGSGTDFTLTINPVEAEDTANYYCQQSFEDPLTFGQGTKLEIKGGGGSGIPPKIECLPIDISIDEGKVLTVASAFTGEPTPEVTWSTGGRKIHSQEQGRFHIENTDDLTTLIIKDVQKQDGGLYTLTLRNEFGSDSATVNIHIRSI
light 2: DIQMTQSPSSLSASVGDRVTITCRASENIYSYLAWYQQKPGKSPKLLIYNARTLAEGVPSRFSGSGSGTDFTLTISSLQPEDFATYYCQYHSGSPLPFGGGTKVEIKRTVAAPSVFIFPPSDEQLKSGTASVVCLLNNFYPREAKVQWKVDNALQSGNSQESVTEQDSKDSTYSLSSTLTLSKADYEKHKVYACEVTHQGLSSPVTKSFNRGEC
notes: also called anti-PDL1-TIGIT bispecific antibody in a (FabV)2-IgG form; PDL1-TIGIT bispecific antibody
- Kd [13]: 0.097 nM
- koff [13]: 0.000123 s⁻¹
- kon [13]: 1.27e+06 M⁻¹ s⁻¹
- Kd [14]: 0.0257 nM
- koff [14]: 9.53e-05 s⁻¹
- kon [14]: 3.71e+06 M⁻¹ s⁻¹
- Kd [15]: 0.0303 nM
- koff [15]: 8.12e-05 s⁻¹
- kon [15]: 2.68e+06 M⁻¹ s⁻¹
- Kd [16]: 0.0954 nM
- koff [16]: 0.00012 s⁻¹
- kon [16]: 1.26e+06 M⁻¹ s⁻¹
